For the data set, the target named is T1, Pol2CORE P301R (DNA polymerase epsilon catalytic core) (Saccharomyces cerevisiae, UniProt P21951 1-1187, P301R).
T1 sequence: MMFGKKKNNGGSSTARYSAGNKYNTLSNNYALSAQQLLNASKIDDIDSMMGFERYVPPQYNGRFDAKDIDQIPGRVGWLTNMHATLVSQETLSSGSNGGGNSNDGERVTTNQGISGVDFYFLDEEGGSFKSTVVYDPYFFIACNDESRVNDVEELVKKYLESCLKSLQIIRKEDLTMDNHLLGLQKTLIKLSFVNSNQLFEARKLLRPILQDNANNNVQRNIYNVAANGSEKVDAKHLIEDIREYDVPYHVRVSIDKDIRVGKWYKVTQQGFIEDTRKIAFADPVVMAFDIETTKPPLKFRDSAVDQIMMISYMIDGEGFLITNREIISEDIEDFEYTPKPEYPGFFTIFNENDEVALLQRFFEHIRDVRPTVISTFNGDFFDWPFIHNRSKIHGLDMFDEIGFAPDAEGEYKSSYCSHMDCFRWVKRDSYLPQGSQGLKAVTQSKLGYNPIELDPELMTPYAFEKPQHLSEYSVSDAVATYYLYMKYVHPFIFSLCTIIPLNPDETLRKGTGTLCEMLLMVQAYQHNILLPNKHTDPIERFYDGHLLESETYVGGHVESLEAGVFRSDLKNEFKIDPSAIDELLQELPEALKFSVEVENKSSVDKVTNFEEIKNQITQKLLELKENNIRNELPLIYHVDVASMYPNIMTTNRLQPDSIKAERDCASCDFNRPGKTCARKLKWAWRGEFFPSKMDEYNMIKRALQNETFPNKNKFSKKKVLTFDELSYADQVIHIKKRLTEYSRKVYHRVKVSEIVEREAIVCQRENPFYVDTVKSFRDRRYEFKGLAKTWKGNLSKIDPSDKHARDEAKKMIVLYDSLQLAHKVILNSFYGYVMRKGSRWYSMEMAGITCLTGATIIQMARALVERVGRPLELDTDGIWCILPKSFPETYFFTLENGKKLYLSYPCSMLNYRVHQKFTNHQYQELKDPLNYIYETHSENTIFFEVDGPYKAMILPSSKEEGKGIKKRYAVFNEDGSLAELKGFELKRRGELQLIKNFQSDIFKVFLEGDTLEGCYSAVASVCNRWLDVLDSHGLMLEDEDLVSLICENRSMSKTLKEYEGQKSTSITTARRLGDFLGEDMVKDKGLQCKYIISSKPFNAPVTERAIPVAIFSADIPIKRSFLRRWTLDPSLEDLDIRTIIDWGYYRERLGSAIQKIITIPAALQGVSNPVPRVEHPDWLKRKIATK
The data set is described as follows: X-ray crystallography; incoming dNTP; Ca2+ in exonuclease A-site; Crystallization conditions not in the material; protein stored in 25 mM Tris-Ac pH 7.5, 10% glycerol, 800 mM NaAc. The note with it: protein: recombinant; tags: 6xHis removed with PreScission protease; 5' overhang 5 nt on template (recessed primer 3' end).

We go through 1 molecule from article PMC6342957, “Structural consequence of the most frequently recurring cancer-associated substitution in DNA polymerase ε”.

B1: KP11ddC/KT16 primer-template (dsDNA)
DNA 1: TAACCGCGTTC
DNA 2: CTCTTGAACGCGGTTA
modifications: 3'-terminal dideoxy-C on primer
In the case of B1, the binding result is recorded as “binds”.
